Positions count from the first letter of the chain named.
Assays:
F1 hybrid maize plants [1] = experiment: efficacy field trial with segregating F1 hybrid plants; type: in vivo; conditions: for % Injury from V4 2,4-D / % Injury from V8 2,4-D: 2,4-D amine 2× at VE-V2 (plus quizalofop-P 0.5×), V4, V8; for % Injury from V4 Quizalofop / % Injury from V8 Quizalofop: quizalofop-P 2× at VE-V2, V4, V8
Protocol: Ten unique engineered proteins optimized for activity at higher temperatures were selected for maize transformation and analysis in plants. DNA constructs were produced for expressing these engineered proteins with codon usage optimized for monocot expression using methods known to those skilled in the art. Enhancers, promoters, leaders, introns, CTPs, and 3′UTRs were tested in various combinations with the engineered proteins in these DNA constructs. The DNA constructs were used to transform immature maize (LH244) embryos with these vectors using Agrobacterium tumifaciens and standard methods known in the art. Regenerated R0 transgenic plantlets were grown in the green house.
Transgenic R0 maize plants were screened by the application of quizalofop-P (2×) plus 2,4-D (2×) at 7 to 10 days following transplant into plugs (generally corresponding to V3-V4 growth stage). All constructs tested produced plants containing unique events that passed the RO screen. The R0 plants were selfed to generate R1 homozygous seed and the R0 was also used as the male to cross with inbred plants containing maize event MON89034 to generate segregating F1 hybrid seed for efficacy field trials.
An efficacy field trial was conducted with segregating F1 hybrid plants, with 50% hemizygous and 50% null for the transgene. Tolerance to quizalofop-P (2×) plus 2,4-D (2×) was assessed using two herbicide application regimens: (1) quizalofop-P (Assure II) at 0.16 lb ai/acre (2×) plus 0.25% v/v non-ionic surfactant (NIS) applied at VE-V2 growth stage followed by the same at V4 growth stage followed by the same at V8 growth stage and (2) 2,4-D amine at 2 lb ae/acre (2×) plus quizalofop-P at 0.04 lb ai/acre (0.5×) plus 0.25% v/v NIS applied at VE-V2 growth stage followed by 2,4-D amine at 2 lb ae/acre (2×) plus 0.25% v/v NIS applied at V4 growth stage followed by the same at V8 growth stage. The 50% of the plants that were null for transgene were removed by the first quizalofop-P application at VE-V2 growth stage. Plots were visually rated 10-14 days after application for crop injury on a scale of 0 to 100 with “0” being none and “100” being complete crop destruction. […] The percentage injury rating with 2× application of 2,4-D at V8 growth stage ranged from a high of 40% to a low of 0. Similarly, the percentage injury rating with 2× application of quizalofop-P at V8 growth stage ranged from a high of 90% to a low of 0. Variation in injury rating between plants expressing the same protein is likely due to variations in construct design or transgene insertion location.

F1 hybrid maize plants [2] = experiment: efficacy field trial for 2,4-D tolerance; type: in vivo; conditions: scale 0 to 100, with CTP unless label says no CTP
Protocol: (§1) Separate trait efficacy field trials for quizalofop-P and 2,4-D were conducted at two locations cach with F1 hybrid transgenic plants produced by crossing an inbred plant containing maize event MON89034 with an R1 plant containing MON-HT55 (with a CTP), MON-HTI (with or without a CTP), MON-HT2 (with or without a CTP), MON-HT3 (with a CTP), MON-HT4 (with a CTP), MON-HT5 (with a CTP), MON-HT6 (with a CTP), or MON-HT7 (with a CTP). Transgenic F1 hybrid plants containing maize events NK603×MON89034 were used for comparison as a control.
In the efficacy field trial for 2,4-D tolerance, one of four herbicide treatments was used: (1) 2,4-D amine at 2 lb ac/acre (2×) plus 0.25% v/v non-ionic surfactant (NIS) applied to VE to V2 followed by V4 followed by V8; (2) 2,4-D amine at 4 lb ac/acre (4×) plus 0.25% v/v NIS applied to VE to V2 followed by V4 followed by V8; (3) 2,4-D amine at 8 lb ac/acre (8×) plus 0.25% v/v NIS applied to VE to V2 followed by V4 followed by V8 maize; or (4) 2,4-D amine at 16 lb ac/acre (16×) plus 0.25% v/v NIS applied to VE to V2 followed by V4 followed by V8. Plots were visually rated as above. Tables 14 and 15 show the average injury ratings after herbicide application at V4 or V8 growth stage, respectively.

F1 hybrid maize plants [3] = experiment: efficacy field trial for quizalofop-P tolerance and clethodim sensitivity; type: in vivo; conditions: scale 0 to 100
Protocol: as §1
In the efficacy field trial for quizalofop-P tolerance and clethodim sensitivity, one of four herbicide treatments was used: (1) quizalofop-P (Assure II) at 0.32 lb ai/acre (4×) plus 0.25% v/v non-ionic surfactant (NIS) applied at VE-V2 growth stage followed by the same at V4 growth stage followed by the same at V8 growth stage; (2) quizalofop-P at 0.64 lb ai/acre (8×) plus 0.25% v/v NIS applied at VE to V2 growth stage followed by the same at V4 growth stage followed by the same at V8 growth stage; (3) quizalofop-P at 1.28 lb ai/acre (16×) plus 0.25% v/v NIS applied at VE to V2 growth stage followed by the same at V4 growth stage followed by the same at V8growth stage; or (4) clethodim at 0.25 lb ai/acre (1×) plus 0.25% v/v NIS applied at V8 growth stage. Plots were visually rated 10-14 days after application for crop injury on a scale of 0 to 100with “0” being none and “100” being complete crop destruction. Tables 14 and 15 show the average injury ratings after herbicide application at V4 or V8 growth stage, respectively.

[4] = enzyme activity assay at 23° C. with purified enzyme; type: biochemical; conditions: for maximum activity as a percentage of the wild-type enzyme's activity, Haloxyfop: purified enzyme
Protocol: The enzyme activity of MON-HT protein variants with haloxyfop, fenoxaprop, fluazifop, and dichlorprop as substrates was determined using the enzyme activity assay conducted at 23° C. with purified enzyme. The activity was recorded as the maximum activity as a percentage of the wild-type enzyme's activity, which was set at 100%.

[5] = 0.32 lb ai/acre at VE-V2, V4, V8, with CTP unless label says no CTP
[6] = 0.64 lb ai/acre at VE-V2, V4, V8, with CTP unless label says no CTP
[7] = 1.28 lb ai/acre at VE-V2, V4, V8, with CTP unless label says no CTP

B1: MON-HT7: engineered oxygenase protein, amino acid sequence SEQ ID NO:34 (protein)
chain: MHAALTPLTNKYRFIDVQPLTGVLGAEITGVDLREPLDDSTWNEILDAFHTYQVIYFPGQAITNEQHIAFSRRFGPVDPVPLLKSIEGYPEVQMIRREANESGRVIGDDWHADSTFLDAPPAAVVMRAIEVPEYGGDTGFLSMYSAWETLSPTMQATIEGLNVVHSATKVFGSLYQATNWRFSNTSVKVMDVDAGDRETVHPLVVTHPVTGRRALYCNQVYCQKIQGMTDAESKSLLQFLYEHATKFDFTCRVRWKKDQVLVWDNLCTMHRSVPDYAGKFRYLTRTTVAGDKPSR
For B1, the “% Injury from V4 2,4-D” value (F1 hybrid maize plants [1]; CTP A) was 21.6%, the “% Injury from V8 2,4-D” value (F1 hybrid maize plants [1]; CTP A) was 16.6% and the “% Injury from V4 Quizalofop” value (F1 hybrid maize plants [1]; CTP A) was 31.2%. The “% Injury from V8 Quizalofop” value (F1 hybrid maize plants [1]; CTP A) was 5%, the “average injury rating, V4 Growth Stage, 2x 2,4-D” value (F1 hybrid maize plants [2]; 2 lb ae/acre at VE-V2, V4, V8) was 1.3 and the “average injury rating, V8 Growth Stage, 2x 2,4-D” value (F1 hybrid maize plants [2]; 2 lb ae/acre at VE-V2, V4, V8) was 2.0. For the same molecule, the “average injury rating, V4 Growth Stage, 4x 2,4-D” value (F1 hybrid maize plants [2]; 4 lb ae/acre at VE-V2, V4, V8) was 1.3, the “average injury rating, V8 Growth Stage, 4x 2,4-D” value (F1 hybrid maize plants [2]; 4 lb ae/acre at VE-V2, V4, V8) was 2.8 and the “average injury rating, V4 Growth Stage, 8x 2,4-D” value (F1 hybrid maize plants [2]; 8 lb ae/acre at VE-V2, V4, V8) was 5.8. The “average injury rating, V8 Growth Stage, 8x 2,4-D” value (F1 hybrid maize plants [2]; 8 lb ae/acre at VE-V2, V4, V8) was 9.3, the “average injury rating, V4 Growth Stage, 16x 2,4-D” value (F1 hybrid maize plants [2]; 16 lb ae/acre at VE-V2, V4, V8) was 12.5 and the “average injury rating, V8 Growth Stage, 16x 2,4-D” value (F1 hybrid maize plants [2]; 16 lb ae/acre at VE-V2, V4, V8) was 20.0. For the same molecule, the “average injury rating, V4 Growth Stage, 4x Quizalofop” value (F1 hybrid maize plants [3]; [5]) was 0.8, the “average injury rating, V8 Growth Stage, 4x Quizalofop” value (F1 hybrid maize plants [3]; [5]) was 1.5 and the “average injury rating, V4 Growth Stage, 8x Quizalofop” value (F1 hybrid maize plants [3]; [6]) was 1.3. For the same molecule, the “average injury rating, V8 Growth Stage, 8x Quizalofop” value (F1 hybrid maize plants [3]; [6]) was 0.8, the “average injury rating, V4 Growth Stage, 16x Quizalofop” value (F1 hybrid maize plants [3]; [7]) was 3.3 and the “average injury rating, V8 Growth Stage, 16x Quizalofop” value (F1 hybrid maize plants [3]; [7]) was 5.5. For the same molecule, the “average injury rating, V8 Growth Stage, 1x Clethodim” value (F1 hybrid maize plants [3]; clethodim 0.25 lb ai/acre at V8, volunteer control) was 93.3.

B2: MON-HT8: engineered oxygenase protein, amino acid sequence SEQ ID NO:37 (protein)
chain: B1 chain with L82I, A112T, A277G, G278N, K279A
With B2 the “% Injury from V4 2,4-D” value (F1 hybrid maize plants [1]; CTP A) was 10%, the “% Injury from V8 2,4-D” value (F1 hybrid maize plants [1]; CTP A) was 10% and the “% Injury from V4 Quizalofop” value (F1 hybrid maize plants [1]; CTP A) was 1.25%. The “% Injury from V8 Quizalofop” value (F1 hybrid maize plants [1]; CTP A) was 1.25%, the “% Injury from V4 2,4-D” value (F1 hybrid maize plants [1]; CTP B) was 12.5% and the “% Injury from V8 2,4-D” value (F1 hybrid maize plants [1]; CTP B) was 11.67%. For the same molecule, the “% Injury from V4 Quizalofop” value (F1 hybrid maize plants [1]; CTP B) was 9.17%, the “% Injury from V8 Quizalofop” value (F1 hybrid maize plants [1]; CTP B) was 8.33% and the “% Injury from V4 2,4-D” value (F1 hybrid maize plants [1]; CTP C) was 20%. The “% Injury from V8 2,4-D” value (F1 hybrid maize plants [1]; CTP C) was 21.25%, the “% Injury from V4 Quizalofop” value (F1 hybrid maize plants [1]; CTP C) was 30% and the “% Injury from V8 Quizalofop” value (F1 hybrid maize plants [1]; CTP C) was 32.5%. For the same molecule, the “% Injury from V4 2,4-D” value (F1 hybrid maize plants [1]; CTP None) was 0%, the “% Injury from V8 2,4-D” value (F1 hybrid maize plants [1]; CTP None) was 0% and the “% Injury from V4 Quizalofop” value (F1 hybrid maize plants [1]; CTP None) was 85%. The “% Injury from V8 Quizalofop” value (F1 hybrid maize plants [1]; CTP None) was 90%, the “maximum activity as a percentage of the wild-type enzyme's activity, Haloxyfop” value ([4]; wild-type set at 100%) was 99% and the “maximum activity as a percentage of the wild-type enzyme's activity, Fluazifop” value (“maximum activity as a percentage … Fluazifop” below) ([4]; wild-type set at 100%) was 50%.

B3: MON-HT9: engineered oxygenase protein, amino acid sequence SEQ ID NO:40 (protein)
chain: MHAALTPLTNKYRFIDVQPLTGVLGAEITGVDLREPLDDSTWNEILDAFHTYQVIYFPAQQITNEQHISFSRRFGPVDPVPLLKSIEGYPEVQMIRREANESGRILGDDWHTDSTFLDAPPAAVVMRAIEVPEYGGDTGFLSMYSAWDTLSDTMKATIEGLNVVHSATRVFGSLYQAQNWRFSNTSVKVMDVDAGDRETVHPLVVSHPVTGRRALYCNQVYCQRIEGMTDAESKCLLQFLYEHATKFDFTCRVRWKKDQVLVWDNLCTMHRAVPDYAGKFRYLTRTTVAGDRPAR
With B3 the “% Injury from V4 2,4-D” value (F1 hybrid maize plants [1]; CTP A) was 20%, the “% Injury from V8 2,4-D” value (F1 hybrid maize plants [1]; CTP A) was 40% and the “% Injury from V4 Quizalofop” value (F1 hybrid maize plants [1]; CTP A) was 5%. The “% Injury from V8 Quizalofop” value (F1 hybrid maize plants [1]; CTP A) was 5%, the “maximum activities for all four substrates compared with the wild-type enzyme” value ([4]; haloxyfop, fenoxaprop, fluazifop and dichlorprop) was “lower than, or equal to” and the “maximum activity as a percentage of the wild-type enzyme's activity, Haloxyfop” value ([4]; wild-type set at 100%) was 91%. For the same molecule, the “maximum activity as a percentage of the wild-type enzyme's activity, Dichlorprop” value ([4]; wild-type set at 100%) was 19%, the “maximum activity as a percentage of the wild-type enzyme's activity, Fenoxaprop” value ([4]; wild-type set at 100%) was 67% and the “maximum activity as a percentage … Fluazifop” value ([4]; wild-type set at 100%) was 41%.

B4: MON-HT10: engineered oxygenase protein, amino acid sequence SEQ ID NO:43 (protein)
chain: B3 chain with T21C, A59G, Q61A, S69A, R271L, A277D, R292K, A294S
For B4, the “% Injury from V4 2,4-D” value (F1 hybrid maize plants [1]; CTP A) was 28%, the “% Injury from V8 2,4-D” value (F1 hybrid maize plants [1]; CTP A) was 38.33% and the “% Injury from V4 Quizalofop” value (F1 hybrid maize plants [1]; CTP A) was 0%. The “% Injury from V8 Quizalofop” value (F1 hybrid maize plants [1]; CTP A) was 0%, the “maximum activity as a percentage of the wild-type enzyme's activity, Dichlorprop” value ([4]; wild-type set at 100%) was 29% and the “maximum activity as a percentage … Fluazifop” value ([4]; wild-type set at 100%) was 48%.

Reference: patent publication US12723255B2, “Herbicide tolerance genes and methods of use thereof” (priority 2014, dated 2026)
